According to the supplement of paper PMC9112550, “Optimization of the antimicrobial peptide Bac7 by deep mutational scanning” (BMC Biology, 2022):

Tested on: Escherichia coli TOP10
Experiment: shrunken log2 fold change of peptide-encoding DNA abundance (4.5 h post-induction vs induction); higher = less antimicrobial activity (less host growth inhibition)
Conditions: time post-induction: 4.5 h; library: site-saturation at positions 5, 18, 19, 20
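Also: peptides expressed intracellularly from a pBAD plasmid library in pooled LB shake-flask culture, induced with 0.3% L-arabinose, DNA abundance read by NGS, three biological replicates, DESeq2 with apeglm shrinkage.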

Row | Sequence | shrunken log2 fold change
1 | RRIRVRPPRLPRPRPRPSCIPRP | -0.423
2 | RRIRFRPPRLPRPRPRPKFVPRP | -0.0222
3 | RRIRCRPPRLPRPRPRPHRCPRP | -0.128
4 | RRIRWRPPRLPRPRPRPIVYPRP | -0.0137
5 | RRIRTRPPRLPRPRPRPQPYPRP | -0.322
6 | RRIRSRPPRLPRPRPRPFKGPRP | 0.112
7 | RRIRCRPPRLPRPRPRPMRQPRP | 0.076
8 | RRIRQRPPRLPRPRPRPYEKPRP | -0.0946
9 | RRIRYRPPRLPRPRPRPKGPPRP | -0.0132
10 | RRIRQRPPRLPRPRPRPAYQPRP | -0.00193
11 | RRIRTRPPRLPRPRPRPYCWPRP | -0.109
12 | RRIRDRPPRLPRPRPRPDTVPRP | -0.0743
13 | RRIRYRPPRLPRPRPRPDLSPRP | -0.025
14 | RRIRFRPPRLPRPRPRPQVCPRP | -0.00807
15 | RRIRNRPPRLPRPRPRPGAGPRP | 0.234
16 | RRIRHRPPRLPRPRPRPGVGPRP | 0.146
17 | RRIRDRPPRLPRPRPRPFFCPRP | 0.55
18 | RRIRTRPPRLPRPRPRPCEKPRP | -0.0336
19 | RRIRYRPPRLPRPRPRPSSSPRP | -0.166
20 | RRIRFRPPRLPRPRPRPKHIPRP | -0.615
21 | RRIRERPPRLPRPRPRPCLKPRP | 0.0135
22 | RRIRSRPPRLPRPRPRPTKRPRP | 0.294
23 | RRIRNRPPRLPRPRPRPQMSPRP | -0.0396
24 | RRIRMRPPRLPRPRPRPGECPRP | -0.0159
25 | RRIRRRPPRLPRPRPRPKSGPRP | -0.0499

Row | Sequence | shrunken log2 fold change
26 | RRIRRRPPRLPRPRPRPCGTPRP | 0.363
27 | RRIRPRPPRLPRPRPRPIFIPRP | -0.389
28 | RRIRRRPPRLPRPRPRPTQFPRP | 0.384
29 | RRIRHRPPRLPRPRPRPIMPPRP | -0.74
30 | RRIRFRPPRLPRPRPRPQACPRP | -0.0456
31 | RRIRHRPPRLPRPRPRPGKYPRP | -0.0822
32 | RRIRDRPPRLPRPRPRPWLGPRP | 0.109
33 | RRIRFRPPRLPRPRPRPRADPRP | 0.223
34 | RRIRWRPPRLPRPRPRPNHVPRP | -0.651
35 | RRIRLRPPRLPRPRPRPLSYPRP | 0.128
36 | RRIRTRPPRLPRPRPRPQQVPRP | -0.231
37 | RRIRGRPPRLPRPRPRPKMHPRP | 0.769
38 | RRIRGRPPRLPRPRPRPDLGPRP | 0.688
39 | RRIRWRPPRLPRPRPRPLWAPRP | 0.417
40 | RRIRHRPPRLPRPRPRPHNEPRP | -0.458
41 | RRIRYRPPRLPRPRPRPVIGPRP | -0.661
42 | RRIRPRPPRLPRPRPRPFKHPRP | 0.0339
43 | RRIRSRPPRLPRPRPRPIIPPRP | -0.188
44 | RRIRIRPPRLPRPRPRPCNPPRP | -0.123
45 | RRIRVRPPRLPRPRPRPQMTPRP | -0.0158
46 | RRIRPRPPRLPRPRPRPDAPPRP | 0.227
47 | RRIRKRPPRLPRPRPRPMWRPRP | 0.481
48 | RRIRWRPPRLPRPRPRPVLNPRP | 0.116
49 | RRIRHRPPRLPRPRPRPTDLPRP | -0.154
50 | RRIRCRPPRLPRPRPRPWGPPRP | -0.299

Row | Sequence | shrunken log2 fold change
51 | RRIRRRPPRLPRPRPRPWIFPRP | 0.0818
52 | RRIRQRPPRLPRPRPRPNWSPRP | 0.148
53 | RRIRERPPRLPRPRPRPPVDPRP | 0.125
54 | RRIRSRPPRLPRPRPRPEGGPRP | 0.325
55 | RRIRTRPPRLPRPRPRPMPVPRP | 0.0572
56 | RRIRERPPRLPRPRPRPKISPRP | 0.000121
57 | RRIRKRPPRLPRPRPRPMTLPRP | -0.0281
58 | RRIRQRPPRLPRPRPRPCSEPRP | -0.201
59 | RRIRFRPPRLPRPRPRPCSWPRP | -0.349
60 | RRIRIRPPRLPRPRPRPRKPPRP | -0.0479
61 | RRIRERPPRLPRPRPRPAVFPRP | 0.154
62 | RRIRPRPPRLPRPRPRPPLHPRP | 0.21
63 | RRIRKRPPRLPRPRPRPAMNPRP | -0.0724
64 | RRIRARPPRLPRPRPRPYNKPRP | -0.731
65 | RRIRCRPPRLPRPRPRPWRTPRP | -0.166
66 | RRIRQRPPRLPRPRPRPHQNPRP | -0.246
67 | RRIRYRPPRLPRPRPRPMQYPRP | -0.131
68 | RRIRARPPRLPRPRPRPSTTPRP | 0.363
69 | RRIRTRPPRLPRPRPRPVCDPRP | 0.0701
70 | RRIRPRPPRLPRPRPRPSFDPRP | -0.248
71 | RRIRKRPPRLPRPRPRPLRCPRP | 0.35
72 | RRIRDRPPRLPRPRPRPPRQPRP | 0.782
73 | RRIRQRPPRLPRPRPRPMYNPRP | -0.545
74 | RRIRIRPPRLPRPRPRPPSPPRP | 0.168
75 | RRIRIRPPRLPRPRPRPVDMPRP | -0.51
